Assay: yeast display, Sf9 membrane polyspecificity reagent, FACS + sequencing; frameworks hold sequencing errors
Procedure, shortened: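 Synthetic nanobody libraries on Saccharomyces cerevisiae BJ5465 were galactose-induced for 36–48 hours, stained 1 hour at 4 °C with 10% biotinylated, detergent-solubilized Sf9 membrane reagent and enriched on streptavidin microbeads. FACS then separated cells into low and high (top ~1%) gates by anti-HA (expression) and streptavidin (reagent binding) fluorescence. Genes were colony-PCR amplified, MiSeq 2 × 250 sequenced and CDR-length filtered. A clone's polyreactivity label is that of its gate of origin.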

Row | Sequence | polyreactivity (PSR sort gate)
1 | QVQLVEAGGGLVQAGGSLRLSCATSGGIFPPNAMGWYRQAPGKERELVASISSDGSTNYADSVKGRFTISRDNAKNTFYLQMISLKPEDTAVYFCAADSTTTWARLHVRRYYYWGQGTQVTVSS | low polyreactivity
2 | QVQLVESGGGLVQAGGSLRLSCAASGNIIWGNAMGWYRQAPGKERELVAAISRRSGSTYYADSVKGRFTISRDNAKNTVYLQMNSLKPEDTAVYYCNTAGRVGTYDYWGQGTQVTVSS | high polyreactivity
3 | QVQLGESGGGFVQAGGLLRLSCAASGRTFRVYAMGWYRQAPGKERELVAAITRGGSTYYADSVKGRFTFSRDNAQNTVYLQMNSLKPEDTAVYSCAADVLRTQPIGWYSHSPLEYWGQGTQVTVSS | high polyreactivity
4 | QVQLVESVGGLVQAGGSLRLSCAASGGTFQHYTMGWYRQAPGKERELVAAISLSGTRTYYADSVKGRFTISRDNAKNTVYLQMNSLKPEDTAVYYCAARYGVEYWGQGTQVTVSS | low polyreactivity
5 | QVQLVESGGGLVQAGGSLRLSCAASGRTFWIYAMGWYRQAPGKERELVAAISRGGSTYADSVKGRFTISRDNAKNTVYLQMNSLKPEDTAVYYCAASTPQYQYYYWGQGTQVTVSS | high polyreactivity
6 | QVQLVESGGGLVQAGGSLRLSCAASGIIFITYAMGWYRQAPGKERELVAAITNSGGGTYYADSVKGRFTISRDNAKNTVDLQMTSLKPEDTAVYYCAARKTAYGYRYDYWGQGTQVTVSS | high polyreactivity
7 | QVQLVESGGGLVQAGGSLRLSCAASGIIFAHYAMGWYRQAPGKERELVAAISRGGSSTYYADSVKGRFTISRDNAKNTVYLQMNSLKPEDTAVDYCAAYGPKVIGPKTSYSSSRYDYWGQGTQVTVSS | high polyreactivity
8 | QVQLVESGGGLVQAGGSLRLSCAASGSISRGNVMGWYRQAPGKERELVAGITRGGRTNYADSVKGRFTISRDNAKNTVYLQMNSLKPEDTAVYYCATYTYYVPWRQRGGYPDFDYWGQGTQVTVSS | high polyreactivity
9 | QVQLVESGGGLVQAGGSLRLSCAASGSIFSTNGMGWYRQAPGKERELVAAISTGGRTYYADSVKGRFTISRDNAKNTVYLQMNSLKPEETAVYYCAKDHWTTTYDEGDYWGQGTEVTVSS | low polyreactivity
10 | QDQLVESGGGLVQAGGSLRLSCAASGFNFSPNAMGWYRQAPGKERELVAAIDWSGDRTYYADSVKGRFTISRDNAKNTVYLEMNSLKPEDTSVYYCNVVRRSTGEYSFYYWGQGTQVTVSS | low polyreactivity
11 | QVQLVESGGGLVQAGGSLRLSCAASGLIFANNAMGWYRQAPGKERELVAVISRGGRTYYADSVKGRFTISRDNAKNTVYLQMNSLKPEDTAVYYCAKPVLVGLGSRYDYWGQGTQVTVSS | high polyreactivity
12 | QVQLVESGGGLVQAGGSLRLSCAASGSTFVWYAMGWYRQAPGKEREFDATISWSDGSRYYADSVKGRFTISRDNAKNTVYLHMNSLKPEDPAVYYCASDVDRFFTYTYDYWGQGTQVTVSS | low polyreactivity
13 | QFQLVESGGGLVQAGGSLRLSCAASGYIFGRYAMGWYRQPPGKERELVAAISSTGDSTYYADSVKGRFTISRDYAKNTVYLQMNSQKPEDTAVYYCNAVVPRYSYGRYYYWGQGTQVTVSS | high polyreactivity
14 | QVQLVESGGGLVQAGGSLRLSCAASGFIFVRYAMGWYRLAPGKEREFVAAISGGAGSSYYADSVKGRFTISRDNAKNTVYLQMNSLKPEDTAVYYCNRVRSLRYGYWGQGTQVTVSS | high polyreactivity
15 | QVQLEESGGGLVQAGGSLRLSCAASGSTFRRYTMGWYRQAPGKERELVAAITRGGSTYYADSVKGRFTISRDNAKNTVYLQMNSLKPEDTAVYYCAVKYFTAFRLRGDYWGQGTQVTVSS | high polyreactivity
16 | QVQLVESGGGLVQAGGSLRLSCAASGITFPYNAMGWYRQAPGKERELVADISSSGGITYYADSVKGRFTISRDNAKNTVYLQMNSLKPEDTAVYYCAVRKYGYGFEMDYWGQGTQVTVSS | low polyreactivity

Row | Sequence | polyreactivity (PSR sort gate)
17 | QVQLVESGGGLVQAGGSLRLSCAASGFTFPGYAMGWYRQAPGKERELVAAISKRGGSTYYADSVKGRFTISRDNAKNTVYLQMNSLKPEDTAVYYCAKSRRGSFYYPYTYTKSGYEYWGQGTQVTVSS | high polyreactivity
18 | QVQLVESGGGLVQAGGSLRLSCAASGIIFTRNAMGWYRQATGKERELVAAITYGGSTYYADSVKGRFTISRDNAKNTVYLQMNSLKPEDTAVYYCAVDAYRYRVHSYGKKYGYNYWGQGTQVTVSS | high polyreactivity
19 | QVQLVESGGGLVQAGGSLRLSCAASGSIFYGYAMGWFRQAPGKEREFVADITSSGVSTYYADSVKGRFTISRDNAKNSVYLQINSLKPEDTAVYYCAKLRRYYSSVYHKFVFYTDDYWGQGSQVTVSS | high polyreactivity
20 | QVQLVESGGGLVQAGGSLRLSSAASGSIFKYYAMGWYRQAPGKERELVATISSVGSTNYADSVKGRFTISRDNAKNTVYLKMNSLKPEATAVYYCNARIGSRSYAWISTRYDYWGQGTQVTVSS | high polyreactivity
21 | QVQLVESGGVLVQAGGSLRLSCADSGSTFFFYAMGWYRHAPGKERELLAAISSTGRTYYADSVKGRFTISRDNAKNSVYLQMNSLKPEETAVYYCAARIYSGYSYWGQGTQVTVSS | high polyreactivity
22 | QVQLVESGGGLVQAGGSLRLSCAASGRIFADYAMGWYRQAPGKERELVADIRQSGGRTYYADSVKGRFTISRDNAKNTVYLQMNSLNPEDTAVYYCATDYGSWGDYSGKYDYWGQGTQVTVSS | low polyreactivity
23 | QVQLVESGGGLVQAGGSLRLSCAASGYISYYYAMGWYRQAPGKEREFVAGISWSGGSTYYADPVKGRFTISRDNAKNTVYLQMNSLKTEDTAVYYCAARLSRWWPPTRVHYTDRYYWGQGTQVTVSS | high polyreactivity
24 | QVQLVESGGGLVQAGGSLRLSCAASRRIFWSNAMGWYRQEPGKERELVAAISRRGGRTYYADSVKGRFTISLDNAKNSVYLQMNSLKPEDTAVYYCAADGTADYDYWGQGTQVTVSS | high polyreactivity
25 | QVQLVESGGGLVQAGGSLRLSCAASGSTFTKYAMGWYRQAPGKERELVAAISRSGGGTYYADSVKGRFTISRDNAKNTVYLQMNILKPEDTAVYYCNAALFRGAQFDYWGQGTQVTVSS | high polyreactivity
26 | QLQLVESGGGLVQAGGILRLSCAASGLIFAEYAMGWYRQAPAKERELVARITSGGSTDYADSVKGRFTISRDNAKNTVYLQMNSLKPEDTAVYYCAARYYSQDKNASTASDFDYWGQGTQVTVSS | low polyreactivity
27 | QVQLVESGGGIVQAGGSLRLSCAASGRTFDSYAMGWYRQAPGKERELVAAITYSGGSTYYADSVKGRFTISRDNAKNTVYLQMNSLKPEDTAVYYCARDRFYYRLAGSKGRRKGDYWGQGTQVTVSS | high polyreactivity
28 | QVQLVESGGGLVHAGGSLRLSCAASGSTFNRYAMGWYRQAHGKERELVASISWGGGRTYYADSVKGRFTISRDNEKNTVYLLMNSLKPEDTAVYYCATDRYYRHYEVDYWGQGTQVTVSS | low polyreactivity
29 | QVQLVESGGGLVQAGGSLRLSCAASGSTFTPNAMGWYRQAPGKERELVAAIRGLNGRTYYADSVKGRFTISRDNAKNTVYLQMHSLKPEDTAVYYCAAGGYSYYFAWHDYWGQGTQVTVSS | low polyreactivity
30 | QVQLVESGGGLVQAGCSLRLSCAASGRTFITNAMGWYRQAPGKVRELVAAISSGTGGRTYYADSVKGRFTISRDKAKNTVYFQMNSRKPEDTAVYYCAARSTKYYPYGYWGQGTQVTVTS | high polyreactivity
31 | QVQLEESGGGLVQAGGSLRLSCAASGIIFYRSVMGWYRQAPGKERELVAAITGGGSTYYADSVKGRFTISRDNAKNTVYLQMNSLKPEDTAVYYCNADIRAYTVLTGGYIYDYWGQVTQVTVSS | high polyreactivity

Source: the nanobody polyreactivity screen of Harvey et al. (2022)
